Experimental data reported in US6387638.
Numbering of substitutions follows the chain as printed. In names and notes the source's numbering stands. Where two headings read alike, the source gives them in different places. Ends that are not written are not given here.

B1: HRG-β1 177-244 L179M, phage-displayed (Example 4 clone) (ligand)
chain: SHMVKCAEKEKTFCVNGGECFMVKDLSNPSRYLCKCPNEFTGDRCQNYVMASFYKHLGIEFMEAEELY
notes: not shown: Display carrier only: the M13 pIII C-terminal fragment from residue 247
B2: HRG-β1 177-244 H178T L179M, phage-displayed (Example 4 clone) (ligand)
chain: B1 chain with H2T
notes: also called T M ·; not shown: M13 pIII C-terminal fragment (fusion point pIII 247), the phage display partner
B3: HRG-β1 177-244 H178E L179V, phage-displayed (Example 4 clone) (ligand)
chain: B1 chain with H2E, M3V
notes: also called E V ·; not shown: M13 pIII C-terminal fragment (fusion point pIII 247), the phage display partner
B4: HRG-β1 EGF variant B5, phage-displayed (ligand)
chain: SHLVKCGWDREGFCVNGGECFMVKDLSNPSRYLCKCPNEFTGDRCQNYVIAS
modifications: not fully specified; cysteine pairing not given here
notes: pHRG8-g3 scaffold; not shown: Display carrier only: the (GGGS)3 linker and the M13 pIII C-terminal fragment from residue 323
B5: combination variant HRG56, phage-displayed (ligand)
chain: B4 chain with W8E, D9E
modifications: not fully specified; cysteine pairing not given here
notes: not shown: Display carrier: (GGGS)3 linker and M13 pIII C-terminal fragment from residue 323
B6: combination variant HRG60, phage-displayed (ligand)
chain: B4 chain with W8E, D9E, F21Y, M22R, D25T
modifications: not fully specified; cysteine pairing not given here
notes: not shown: Display carrier only: (GGGS)3 linker and the M13 pIII C-terminal fragment from residue 323
B7: HRG-β1 EGF variant B10, phage-displayed (ligand)
chain: B4 chain with G7D, W8K, D9S
modifications: not fully specified; cysteine pairing not given here
notes: as for B4
B8: combination variant HRG53, phage-displayed (ligand)
chain: B4 chain with W8E, D9E, F21Y, M22R, D25T, I50M
modifications: not fully specified; cysteine pairing not given here
notes: as for B5
B9: combination variant HRG54, phage-displayed (ligand)
chain: SHLVKCGEEREGFCVNGGECFMVKDYGYLMCKCPNEFTGDRCQNYVMAS
modifications: not fully specified; cysteine pairing not given here
notes: as for B5
B10: combination variant HRG62, phage-displayed (ligand)
chain: B9 chain with F21Y, M22R, D25T, M47I
modifications: not fully specified; cysteine pairing not given here
notes: as for B6
B11: combination variant HRG55, phage-displayed (ligand)
chain: B9 chain with F21Y, M22R, D25T
modifications: not fully specified; cysteine pairing not given here
notes: as for B5
B12: combination variant HRG61, phage-displayed (ligand)
chain: B9 chain with M47I
modifications: not fully specified; cysteine pairing not given here
notes: as for B6
B13: HRG-β1 EGF variant D1, phage-displayed (ligand)
chain: SHLVKCAEKEKTFCVNGGECYKVRILSNPSRYLCKCPNEFTGDRCQNYVIAS
modifications: not fully specified; cysteine pairing not given here
notes: as for B4
B14: combination variant HRG59, phage-displayed (ligand)
chain: B13 chain with K22R, R24K, I25T
modifications: not fully specified; cysteine pairing not given here
notes: as for B5
B15: HRG-β1 EGF variant D10, phage-displayed (ligand)
chain: B13 chain with K22M, R24K, I25T, I50M
modifications: not fully specified; cysteine pairing not given here
notes: as for B4
B16: HRG90: HRG-β1 EGF Met226Ile, phage-displayed (ligand, phage M13)
chain: SHLVKCAEKEKTFCVNGGECFMVKDLSNPSRYLCKCPNEFTGDRCQNYVIASGGGSGGGSGGGSNSQMAQVGDGDNSPLMNNFRQYLPSLPQSVECRPFVFSAGKPYEFSIDCDKINLFRGVFAFLLYVATFMYVFSTFANILRNKES
notes: range 323-end
B17: HRG-β1 EGF variant E3, phage-displayed (ligand)
chain: SHLVKCAEKEKTFCVNGGECFMVKDYRYRMCKCPNEFTGDRCQNYVIAS
modifications: not fully specified; cysteine pairing not given here
notes: not shown: Display carrier only: the (GGGS)3 linker and the M13 pIII C-terminal fragment from residue 323
B18: HRG-β1 EGF variant E6, phage-displayed (ligand)
chain: B17 chain with Y26T, R27H, I47M
modifications: not fully specified; cysteine pairing not given here
notes: as for B17
B19: combination variant HRG57, phage-displayed (ligand)
chain: B17 chain with F21Y, M22R, D25T, R27G, R29L, I47M
modifications: not fully specified; cysteine pairing not given here
notes: as for B5
B20: combination variant HRG71, phage-displayed (ligand)
chain: B17 chain with F21Y, M22R, D25T, R27G, R29L, N44H
modifications: not fully specified; cysteine pairing not given here
notes: as for B6
B21: combination variant HRG48, phage-displayed (ligand)
chain: B17 chain with R27G, R29L
modifications: not fully specified; cysteine pairing not given here
notes: as for B5
B22: Trx-HRG-β1 146-244 S177A fusion (soluble) (ligand)
chain: AYVSSESPIRISVSTEGANTSSSTSTSTTGTAHLVKCAEKEKTFCVNGGECFMVKDLSNPSRYLCKCPNEFTGDRCQNYVMASFYKHLGIEFMEAEELY
B23: Trx-HRG-β1 146-244 T217A fusion (soluble) (ligand)
chain: B22 chain with A32S, T72A
B24: Trx-HRG-β1 146-244 N192A fusion (soluble) (ligand)
chain: B22 chain with A32S, N47A
B25: Trx-HRG-β1 146-244 R207A fusion (soluble) (ligand)
chain: B22 chain with A32S, R62A
B26: Trx-HRG-β1 146-244 F189A fusion (soluble) (ligand)
chain: B22 chain with A32S, F44A
B27: Trx-HRG-β1 146-244 H178A fusion (soluble) (ligand)
chain: B22 chain with A32S, H33A
B28: Trx-HRG-β1 146-244 K200A fusion (soluble) (ligand)
chain: B22 chain with A32S, K55A
B29: Trx-HRG-β1 146-244 G194A fusion (soluble) (ligand)
chain: B22 chain with A32S, G49A
B30: Trx-HRG-β1 146-244 G193A fusion (soluble) (ligand)
chain: B22 chain with A32S, G48A
B31: Trx-HRG-β1 146-244 E195A fusion (soluble) (ligand)
chain: B22 chain with A32S, E50A
B32: Trx-HRG-β1 146-244 L179A fusion (soluble) (ligand)
chain: B22 chain with A32S, L34A
B33: Trx-HRG-β1 146-244 P205A fusion (soluble) (ligand)
chain: B22 chain with A32S, P60A

What was measured:
[1] = target: T1, ErbB-3 receptor-Ig fusion (homodimer) (human, UniProt P21860 20-643; P21860 20-636); assay: phage ELISA, soluble ErbB-3-Ig as competitor
[2] = target: T2, ErbB-4 receptor-Ig fusion (homodimer) (human, UniProt Q15303 26-651; Q15303 26-640); assay: phage ELISA, soluble ErbB-4-Ig as competitor
[3] = target: T1, ErbB-3 receptor-Ig fusion (homodimer); assay: phage ELISA, soluble ErbB-3-Ig as competitor; remark: listed apart in the source
[4] = target: T2, ErbB-4 receptor-Ig fusion (homodimer); assay: phage ELISA, soluble ErbB-4-Ig as competitor; remark: listed apart in the source
[5] = target: T1, ErbB-3 receptor-Ig fusion (homodimer); assay: phage ELISA, soluble ErbB-3-Ig as competitor; remark: listed apart in the source
[6] = target: T1, ErbB-3 receptor-Ig fusion (homodimer); assay: displacement of 125I-HRG-β1 177-244 from plate-bound ErbB-3-Ig
[7] = target: T2, ErbB-4 receptor-Ig fusion (homodimer); assay: displacement of 125I-HRG-β1 177-244 from plate-bound ErbB-4-Ig

T2 sequence (Q15303 other isoform, or with tags, fused parts or gaps): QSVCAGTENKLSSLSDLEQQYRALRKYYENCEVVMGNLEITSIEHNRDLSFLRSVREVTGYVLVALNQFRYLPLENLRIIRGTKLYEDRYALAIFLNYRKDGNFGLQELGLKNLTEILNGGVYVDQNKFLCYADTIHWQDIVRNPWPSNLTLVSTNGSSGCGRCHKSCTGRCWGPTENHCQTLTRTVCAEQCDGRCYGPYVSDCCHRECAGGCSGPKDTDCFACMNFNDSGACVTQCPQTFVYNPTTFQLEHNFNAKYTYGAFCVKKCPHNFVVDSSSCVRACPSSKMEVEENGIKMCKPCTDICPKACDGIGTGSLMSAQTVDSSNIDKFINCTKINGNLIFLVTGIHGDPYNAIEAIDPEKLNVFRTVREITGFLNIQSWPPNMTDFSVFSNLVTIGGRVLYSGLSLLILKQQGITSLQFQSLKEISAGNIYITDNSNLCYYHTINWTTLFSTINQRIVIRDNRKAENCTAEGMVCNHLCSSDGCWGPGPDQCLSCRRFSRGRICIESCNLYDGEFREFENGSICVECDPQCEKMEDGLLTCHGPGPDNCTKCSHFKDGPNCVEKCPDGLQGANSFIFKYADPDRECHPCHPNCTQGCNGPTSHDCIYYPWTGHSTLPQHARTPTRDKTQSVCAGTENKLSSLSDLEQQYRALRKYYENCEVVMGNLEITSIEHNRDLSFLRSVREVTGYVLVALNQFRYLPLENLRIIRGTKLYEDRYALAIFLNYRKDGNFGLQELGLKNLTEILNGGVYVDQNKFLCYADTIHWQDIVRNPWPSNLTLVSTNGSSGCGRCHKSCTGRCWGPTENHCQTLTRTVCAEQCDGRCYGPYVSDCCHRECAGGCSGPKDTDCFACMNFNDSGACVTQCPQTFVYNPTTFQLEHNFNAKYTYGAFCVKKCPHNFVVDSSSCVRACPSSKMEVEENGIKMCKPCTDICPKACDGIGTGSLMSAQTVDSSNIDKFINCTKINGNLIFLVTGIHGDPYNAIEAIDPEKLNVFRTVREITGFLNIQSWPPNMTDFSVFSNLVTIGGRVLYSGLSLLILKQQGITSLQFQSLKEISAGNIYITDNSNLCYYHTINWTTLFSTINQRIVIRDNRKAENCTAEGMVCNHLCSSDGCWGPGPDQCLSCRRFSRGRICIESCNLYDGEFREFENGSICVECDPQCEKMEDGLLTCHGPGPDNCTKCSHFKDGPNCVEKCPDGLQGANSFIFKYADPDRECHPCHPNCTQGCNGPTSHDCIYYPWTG
T1 sequence (P21860 other isoform, or with tags, fused parts or gaps): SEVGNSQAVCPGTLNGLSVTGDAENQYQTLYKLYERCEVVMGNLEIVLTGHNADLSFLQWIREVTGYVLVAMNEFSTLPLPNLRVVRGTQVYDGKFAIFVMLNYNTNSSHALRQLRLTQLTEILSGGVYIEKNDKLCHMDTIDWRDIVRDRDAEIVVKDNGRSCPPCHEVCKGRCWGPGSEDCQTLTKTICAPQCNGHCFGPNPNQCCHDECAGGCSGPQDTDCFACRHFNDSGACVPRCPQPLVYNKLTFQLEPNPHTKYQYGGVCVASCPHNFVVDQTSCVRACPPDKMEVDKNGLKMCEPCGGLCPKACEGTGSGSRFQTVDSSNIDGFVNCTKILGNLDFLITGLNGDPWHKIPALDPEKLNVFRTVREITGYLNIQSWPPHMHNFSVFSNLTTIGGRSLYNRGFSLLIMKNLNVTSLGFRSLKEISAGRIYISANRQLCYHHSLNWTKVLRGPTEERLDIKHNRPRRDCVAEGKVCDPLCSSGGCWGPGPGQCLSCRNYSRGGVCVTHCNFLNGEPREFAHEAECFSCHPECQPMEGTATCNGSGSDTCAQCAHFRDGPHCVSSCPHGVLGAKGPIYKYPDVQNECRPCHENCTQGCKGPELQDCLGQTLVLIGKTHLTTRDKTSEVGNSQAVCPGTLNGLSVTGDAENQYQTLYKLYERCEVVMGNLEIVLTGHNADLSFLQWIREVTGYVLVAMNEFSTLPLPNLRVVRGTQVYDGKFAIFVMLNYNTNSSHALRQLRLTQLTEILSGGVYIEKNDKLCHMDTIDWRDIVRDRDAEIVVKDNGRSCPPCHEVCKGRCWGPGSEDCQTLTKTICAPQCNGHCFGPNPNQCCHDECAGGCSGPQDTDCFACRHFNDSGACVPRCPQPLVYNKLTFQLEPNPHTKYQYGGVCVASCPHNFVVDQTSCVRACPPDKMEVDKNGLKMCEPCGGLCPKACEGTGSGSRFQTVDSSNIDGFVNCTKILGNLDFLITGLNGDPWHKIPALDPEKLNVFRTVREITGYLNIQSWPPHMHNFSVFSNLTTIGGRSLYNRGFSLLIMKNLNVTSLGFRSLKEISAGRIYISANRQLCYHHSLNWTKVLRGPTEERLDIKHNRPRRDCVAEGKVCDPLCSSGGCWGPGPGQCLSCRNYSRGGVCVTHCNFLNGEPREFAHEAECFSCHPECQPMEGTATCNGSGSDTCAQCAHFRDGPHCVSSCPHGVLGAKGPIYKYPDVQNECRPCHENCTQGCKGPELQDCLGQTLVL

Molecule	EC50(wt)/EC50(mut) [5]	EC50 [6]	EC50 [7]	other results
HRG-β1 177-244 H178L, phage-displayed (Example 4 clone) (from UniProt P69168 265-424) (ligand)	–	–	–	EC50 Mut/WT [1]: 1.4; EC50 Mut/WT [2]: 1.2
HRG-β1 177-244 R207P, phage-displayed (Example 4 clone) (from UniProt P69168 265-424) (ligand)	–	–	–	EC50 Mut/WT [1]: 6.1; EC50 Mut/WT [2]: 1.3
HRG-β1 177-244 H178D L179V, phage-displayed (Example 4 clone) (from UniProt P69168 265-424) (ligand)	–	–	–	EC50 Mut/WT [1]: 2.2; EC50 Mut/WT [2]: 2
HRG-β1 177-244 H178W with 228-231 replaced by Met, phage-displayed (Example 4 clone) (from UniProt P69168 265-424) (ligand)	–	–	–	EC50 Mut/WT [1]: 1.2; EC50 Mut/WT [2]: 1.7
HRG-β1 177-244 H178E, phage-displayed (Example 4 clone) (from UniProt P69168 265-424) (ligand)	–	–	–	EC50 Mut/WT [1]: 9.5; EC50 Mut/WT [2]: 1.7
HRG-β1 177-244 L179V, phage-displayed (Example 4 clone) (from UniProt P69168 265-424) (ligand)	–	–	–	EC50 Mut/WT [1]: 1.5; EC50 Mut/WT [2]: 1.6
HRG-β1 177-244 H178L with 228-231 replaced by Met, phage-displayed (Example 4 clone) (from UniProt P69168 265-424) (ligand)	–	–	–	EC50 Mut/WT [1]: 6.4; EC50 Mut/WT [2]: 1.7
B1	–	–	–	EC50 Mut/WT [3]: 1.2 ratio; EC50 Mut/WT [4]: 1.5 ratio
B2	–	–	–	EC50 Mut/WT [3]: 1.4 ratio; EC50 Mut/WT [4]: 1.6 ratio
B3	–	–	–	EC50 Mut/WT [3]: 0.8 ratio; EC50 Mut/WT [4]: 1.7 ratio
B4	26 ratio	–	–	–
B5	31 ratio	–	–	–
B6	63 ratio	–	–	–
B7	9.3 ratio	–	–	–
B8	26 ratio	–	–	–
B9	12 ratio	–	–	–
B10	32 ratio	–	–	–
B11	13 ratio	–	–	–
B12	29 ratio	–	–	–
B13	11 ratio	–	–	–

Molecule	EC50(wt)/EC50(mut) [5]	EC50 [6]	EC50 [7]	other results
B14	26 ratio	–	–	–
B15	2.1 ratio	–	–	–
B16	6.3 ratio	–	–	–
B17	16 ratio	–	–	–
B18	6.6 ratio	–	–	–
B19	24 ratio	–	–	–
B20	79 ratio	–	–	–
B21	49 ratio	–	–	–
B22	–	129 nM	54.6 nM	–
B23	–	145 nM	32.7 nM	–
B24	–	1640 nM	696 nM	–
B25	–	245 nM	24.3 nM	–
B26	–	975 nM	565 nM	–
B27	–	476 nM	138 nM	–
B28	–	45.4 nM	16.9 nM	–
B29	–	1210 nM	275 nM	–
B30	–	26.9 nM	76.3 nM	–
B31	–	42 nM	13.2 nM	–
B32	–	394 nM	51.7 nM	–
B33	–	39.5 nM	34.2 nM	–
